Target: T1, recombinant secreted soluble PSCA with a C-terminal 6xHis and MYC tag (human) (UniProt O43653)
T1 sequence (looked up): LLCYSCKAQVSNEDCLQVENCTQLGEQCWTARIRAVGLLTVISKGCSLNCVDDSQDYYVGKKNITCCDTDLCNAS
Experiment: SPR (BIAcore), recombinant His/MYC-tagged PSCA immobilized at low density (30 RU), mAb in solution

- Kd: 1 nM
- kon: 168000 M⁻¹ s⁻¹
B1: anti-PSCA monoclonal antibody 1G8 (ATCC No. HB-12612) (antibody, from another filing, mouse IgG1, V domains shown)
VH: EVQLQQSGAELVRSGASVKLSCTASGFNIKDYYIHWVNQRPDQGLEWIGWIDPENGDTEFVPKFQGKATMTADIFSNTAYLHLSSLTSEDTAVYYCKTGGFWGQGTLVTVSA
VL: QVVLTQSPAIMSASPGEKVTMACSASSSVRFIHWYQQKSGTSPKRWIYDTSKLASGVPTRFSGSGSGTSYSLTISTMEAEDAATYYCQQWSSSPFTFGSGTKLIIK

From patent US20040018571A1
